According to patent US7919462B2, “Inhibitors of human plasmin derived from the Kunitz domains” (Dyax Corp., priority 1994, dated 2011):
Values joined by “and” are separate entries in the source; they are usually repeats but may differ in a detail not shown here. Equal entries are not always repeated. Where two headings read alike, the source gives them in different places. Bridges are numbered along the chain shown (N, C = ends). Where no end group is shown, it is not given here.

Experiments:
plasmin [1] = biological target: T1, plasmin (Homo sapiens, UniProt P00747); assay: Inhibition of plasmin hydrolysis of succinyl-Ala-Phe-Lys-(F3Ac)AMC, tight-binding fit (Ki used as KD); assay type: biochemical
Excerpt: A second appropriate method of measuring KD is to measure the inhibitory activity against the enzyme. […] Here, we use the measured Ki as a direct measure of KD.
Inhibition of hydrolysis of succinyl-Ala-Phe-Lys-(F3Ac)AMC (a methyl coumarin) (Sigma Chemical, St. Louis, Mo.) by plasmin at 2.5×10^−8 M with varying amount of inhibitor were fit to the standard form for a tight-binding […] by least-squares.

plasmin [2] = biological target: T1, plasmin; assay: Binding of display phage (KuDom on M13 gIIIp) to plasmin beads; details: in words
plasmin [3] = biological target: T1, plasmin; details: cited from earlier work; for Kd: Table 4, plasmin, read-out: Affinity KD

T1 sequence (P00747 581-810 limits assumed): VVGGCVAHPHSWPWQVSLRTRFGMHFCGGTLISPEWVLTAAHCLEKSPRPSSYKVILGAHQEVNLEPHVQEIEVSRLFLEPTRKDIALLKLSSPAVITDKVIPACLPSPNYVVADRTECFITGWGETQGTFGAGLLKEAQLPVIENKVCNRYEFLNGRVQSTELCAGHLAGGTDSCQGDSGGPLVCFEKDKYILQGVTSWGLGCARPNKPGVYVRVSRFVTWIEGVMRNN
T1 sequence (P00747 97-580 partner limits assumed): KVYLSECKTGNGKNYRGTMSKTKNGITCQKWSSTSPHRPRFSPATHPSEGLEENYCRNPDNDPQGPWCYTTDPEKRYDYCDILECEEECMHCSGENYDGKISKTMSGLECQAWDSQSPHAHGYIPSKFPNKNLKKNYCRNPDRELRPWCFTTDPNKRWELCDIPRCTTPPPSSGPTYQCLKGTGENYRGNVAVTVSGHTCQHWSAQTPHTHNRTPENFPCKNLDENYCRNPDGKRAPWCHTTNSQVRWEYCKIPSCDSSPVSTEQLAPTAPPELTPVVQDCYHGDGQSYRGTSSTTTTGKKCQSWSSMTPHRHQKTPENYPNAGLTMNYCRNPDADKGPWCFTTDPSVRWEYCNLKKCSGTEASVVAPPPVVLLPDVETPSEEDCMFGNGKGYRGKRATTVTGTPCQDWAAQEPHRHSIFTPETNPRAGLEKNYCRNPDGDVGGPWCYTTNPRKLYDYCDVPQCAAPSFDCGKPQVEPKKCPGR

With “QS4: LACI-K1 derivative that binds human plasmin, SEQ ID NO. 4 (MHSFCAFKADDGPCKARFERFFFNIFTRQCEQFYYGGCDGNQNRFESLEECKKMCTRD; Synthetically generated peptide)” the Ki (plasmin [1]; 150 mM salt, read-out: Ki for plasmin) was ~2 nM, the Kd (plasmin [1]; Table 4, plasmin, read-out: Affinity KD) was 2 nM and the “potency class for plasmin below the rank order of Table 8” value (plasmin [1]; class words wrapped over r53-r54: Highly Superior / very potent / potent, order SPI11<BPTI<SPI23=SPI51<SPI47<QS4<SPI22<SPI54<SPI43) was “potent”.
With “MHSFCAFKADSGPCRARFDRWFFNIFTRQCTRFPYGGCGGNQNRFESLEECKKMCTRD (disulfide 5-55, 14-38, 30-51) [SPI54]” the Ki (plasmin [1]; Ki for plasmin, 150 mM salt) was > 4 nM.
With “MHSFCAFKAETGPCRARFDRWFFNIFTRQCEEFIYGGCEGNQNRFESLEECKKMCTRD (disulfide 5-55, 14-38, 30-51) [SPI11]” the Kd (plasmin [1]; Affinity KD) was 0.088 nM, the Ki (plasmin [1]; Ki for plasmin) was 0.088 nM and ~0.088 nM and the Kd (plasmin [1]; affinity for plasmin) was < 0.1 nM.
With “SPI15: LACI-K1 derivative selected for plasmin binding, SEQ ID NO. 41 (Table 6: 90) (MHSFCAFKAESGPCRARFDRWFFNIFTRQCEEFIYGGCEGNQNRFESLEECKKMCTRD; Synthetically generated peptide)” the “binding of clonally pure phage compared to BPTI display phage” value (plasmin [2]) was “superior to BPTI phage”.
With “SPI08: LACI-K1 derivative selected for plasmin binding, SEQ ID NO. 42 (MHSFCAFKADGGPCRARFERFFFNIFTRQCEEFIYGGCEGNQNRFESLEECKKMCTRD; Synthetically generated peptide)” the “binding of clonally pure phage compared to BPTI display phage” value (plasmin [2]) was “superior to BPTI phage”.
With “MHSFCAFKADGGPCKGKFPRFFFNIFTRQCEEFIYGGCEGNQNRFESLEECKKMCTRD (disulfide 5-55, 14-38, 30-51) [SPI22]” the Kd (plasmin [1]; Affinity KD) was > 2 nM.
For “MHSFCAFKAETGPCRGKFDRWFFNIFTRQCESFHYGGCKGNQNRFESLEECKKMCTRD (disulfide 5-55, 14-38, 30-51) [SPI43]”, the Ki (plasmin [1]; Ki for plasmin) was > 4 nM.
In the case of “Human APP-I: human Kunitz domain APP-I, SEQ ID NO. 39 (VREVCSEQAETGPCRAMISRWYFDVTEGKCAPFFYGGCGGNRNNFDTEEYCMAVCGSA; listed as Homo sapiens)”, the Ki (plasmin [3]; AUER88, SCHN86, DENN94a) is given as 225 nM, the Kd (plasmin [3]; KIDO88) is given as 0.075 nM and the Kd (plasmin [3]; literature values (APP-I: DENN94a)) is given as 225 nM.
For “MHSFCAFKADDGPCKARFERFFFNIFTRQCEQFTYGGCGGNQNRFESLEECKKMCTRD (disulfide 5-55, 14-38, 30-51) [NS4]”, the Ki (plasmin [1]; Ki for plasmin, 150 mM salt) was ~2 nM.
